The data set deals with NP wt (Influenza A virus H1N1 (A/WSN/33), UniProt P15682 1-498). Nature of the data set: SPR. The note with it: protein: recombinant; tags: C-terminal 6xHis; label: 5'-biotin; single strand.

As to UUUGUUACACACACACACGCUGUG (ssRNA) [Flu1 RNA 24-mer], the Kd – broadly, a measure of binding affinity in units of concentration – came out at 41 ± 7 nM.

Values taken from paper PMC3260217.
